This note sets out measurements from patent US20110124071A1, “METHODS AND COMPOSITIONS FOR PRODUCING HYDROCARBONS” (priority 2009, published 2011).

Data set [1] is described as follows: In vitro decarbonylation enzyme assay with purified Npun02004178 protein, GC/MS. The class given is biochemical. To be noted: 30 μM protein, 200 μM octadecanal, spinach ferredoxin, ferredoxin reductase, 1 mM NADPH, 37° C., 2 h. As to the method:
The genomic DNA encoding N. punctiforme PCC73102 Npun02004178 (SEQ ID NO: 5) was cloned into the NdeI and XhoI sites of vector pET-15b under the control of the T7 promoter. The resulting Npun02004178 protein contained an N-terminal His-tag. An E. coli BL21 strain (DE3) (Invitrogen) was transformed with the plasmid by routine chemical transformation techniques. Protein expression was carried out by first inoculating a colony of the E. coli strain in 5 ml of LB media supplemented with 100 mg/L of carbenicillin and shaken overnight at 37° C. to produce a starter culture. This starter cultures was used to inoculate 0.5 L of LB media supplemented with 100 mg/L of carbenecillin. […] Protein concentration was determined using the Bradford assay (Biorad). […]
To test Npun02004178 protein for decarbonylation activity, the following enzyme assays were set-up. […] Samples were analyzed by GC/MS using the following parameters: run time: 13.13 min; column: HP-5-MS Part No. 19091S-433E (length of 30 meters; I.D.: 0.25 mm narrowbore; film: 0.25ìM); inject: 1ìl Agilent 6850 inlet; inlet: 300 C splitless; carrier gas: helium; flow: 1.3 ml/min; oven temp: 75° C. hold 5 min, 320 at 40° C./min, 320 hold 2 min; det: Agilent 5975B VL MSD; det. temp: 330° C.; scan: 50-550 M/Z. Heptadecane from Sigma was used as an authentic reference for determining compound retention time and fragmentation pattern.

A further data set has as its system E. coli MG1655. The data set is described as follows: Coexpression of putative decarbonylase with S. elongatus PCC7942 orf1594 in E. coli, GC-MS of extracts. The class given is cell-based. Particulars: coexpressed with S. elongatus PCC7942 orf1594 in E. coli MG1655, M9 minimal media. As to the method:
After a 1 μl splitless injection (inlet temperature held at 300° C.) onto the GC/MS column, the oven was held at 100° C. for 3 mins. The temperature was ramped up to 320° C. at a rate of 20° C./min. The oven was held at 320° C. for an additional 5 min. The flow rate of the carrier gas helium was 1.3 ml/min. The MS quadrapole scanned from 50 to 550 m/z. Retention times and fragmentation patterns of product peaks were compared with authentic references to confirm peak identity.
The genomic DNA encoding Synechococcus elongatus PCC7942 orf1594 (YP—400611; putative aldehyde-generating enzyme) (SEQ ID NO: 65) was amplified and cloned into the NcoI and EcoRI sites of vector OP-80 (pCL1920 derivative) under the control of the Ptrc promoter. The resulting construct (“OP80-PCC7942—1594”) was transformed into E. coli MG1655 and the cells were grown at 37° C. in M9 minimal media with 1% (w/v) glucose as carbon source and supplemented with 100 μg/ml spectinomycin. When the culture reached OD600 of 0.8-1.0, it was induced with 1 mM IPTG and cells were grown for an additional 18-20 h at 37° C. Cells from 0.5 ml of culture were extracted with 0.5 ml of ethyl acetate. After sonication for 60 min, the sample was centrifuged at 15,000 rpm for 5 min. The solvent layer was analyzed by GC-MS as described in Example 1.
The genomic DNA encoding Synechococcus elongatus PCC7942 orf1593 (YP—400610; putative decarbonylase) (SEQ ID NO: 1) was amplified and cloned into the NdeI and XhoI sites of vector OP-183 (pACYC derivative) under the control of the Ptrc promoter. The resulting construct was cotransformed with OP80-PCC7942—1594 into E. coli MG1655 and the cells were grown at 37° C. in M9 minimal media supplemented with 100 μg/ml spectinomycin and 100 μg/ml carbenicillin. The cells were cultured and extracted as in Example 3 and analyzed by GC-MS as described in Example 1. […]

For data set [2], the system named is E. coli MG1655 ΔfadD lacZ::Ptrc-′tesA. Description: Heterologous expression in a fatty aldehyde-producing E. coli strain with MSMEG—5739, GC-MS. The class given is cell-based. To be noted: decarbonylase coexpressed with carboxylic acid reductase MSMEG—5739.

B1: Npun02004178: Nostoc punctiforme PCC73102 putative decarbonylase (SEQ ID NO: 5) (protein)
chain: MQQLTDQSKELDFKSETYKDAYSRINAIVIEGEQEAHENYITLAQLLPESHDELIRLSKMESRHKKGFEACGRNLAVTPDLQFAKEFFSGLHQNFQTAAAEGKVVTCLLIQSLIIECFAIAAYNIYIPVADDFARKITEGVVKEEYSHLNFGEVWLKEHFAESKAELELANRQNLPIVWKMLNQVEGDAHTMAMEKDALVEDFMIQYGEALSNIGFSTRDIMRLSAYGLIGA
modifications: Nostoc punctiforme
For B1, the “in-vitro conversion of octadecanal to heptadecane” value in data set [1] is “in-vitro conversion of octadecanal to heptadecane was observed”. Moreover, in the data set with E. coli MG1655, the “fatty aldehyde decarbonylase activity (alkane/alkene production)” value was “active fatty aldehyde decarbonylase”. Moreover, the “conversion of fatty aldehydes provided by MSMEG—5739 to alkanes” value in data set [2] is “produced tridecane, pentadecene and pentadecane”.
